In general, EC50 refers to the midpoint of the concentration-response curve. As a reminder, the EC90 is the point of the concentration-response curve where the effect stands at 90%.

The values that follow come from patent publication US9464280B1, “Beta-lactamases with improved properties for therapy” (priority 2014, dated 2016).

Data set [1] concerns Escherichia coli ATCC 25922. Briefly: Microbroth dilution: EC50 of ampicillin and ceftriaxone in absence and presence of P1A. In kind it is cell-based. The note with it: for EC50: Escherichia coli, ATCC25922, P1A 0, read-out: Ceftriaxone EC50. On the procedure:
(§1) Escherichia coli strain 25922 was cultured from glycerol stocks to logarithmic growth in cation adjusted Mueller-Hinton broth at 37° C. in an atmospheric environment and diluted in cation adjusted Mueller-Hinton broth to achieve a starting in well concentration of 5×10^5 CFU/mL. Serial 2-fold dilution of antimicrobial compounds were prepared in cation adjusted Mueller-Hinton broth to achieve final in well concentration of 128 μg/mL to 0.13 μg/mL for ampicillin and 4 μg/mL 4 ng/mL in the absence or presence of serial 10-fold dilutions of P1A, P3A, or P4A β-lactamase standard, 5 pg/mL to 50 ng/mL for ampicillin and […] to 500 ng/mL for ceftriaxone, ceftazidime, meropenem, cefepime, cefazolin, amp/sulbactam, cefoperazone, cefotaxime, and cefuroxime. Antibiotics were either added to the P1A and incubated for 30 min at 37° C. (pre-incubation) prior to addition of bacteria, or added to the plates following the addition of P1A, P3A, P4A, and bacteria (simultaneous). All concentrations and combinations were evaluated in triplicate in a 96-well plate format that contained media only, compound plus media only (colorimetric control), and untreated bacterial controls.
The 50% effective inhibitory concentration (EC50) of ampicillin and ceftriaxone against Escherichia coli was determined in the absence and presence of P1A β-lactamase. For the purposes of these studies, the stated effective concentration was the initial concentration of ampicillin or ceftriaxone added at the beginning of the experiment, and not a concentration measured during the course of the experiment or at the end of the incubation period.
Antibiotics were either added to the P1A and incubated for 30 min at 37° C. (Pre-incubation) prior to addition of bacteria, or added to the plates following the addition of P1A and bacteria (Simultaneous). All concentrations and combinations were evaluated in triplicate in a 96-well plate format. Following overnight incubation, the 0D625 of the plates was measured in a Spectramax 384 plate reader and the data were imported into a customized Excel spreadsheet for the determination of the 50% effective inhibitory concentration at (EC50) by linear regression analysis. For the purposes of these studies, the stated effective concentration is the initial concentration of ampicillin or ceftriaxone added at the beginning of the experiment, and not a concentration measured during the course of the experiment or at the end of the incubation period.
Antibiotics were either added to the P1A and incubated for 30 min at 37° C. (Pre-incubation) prior to addition of bacteria, or added to the plates following the addition of P1A and bacteria (Simultaneous). All concentrations and combinations were evaluated in triplicate in a 96-well plate format. Following overnight incubation, the OD625 of the plates was measured in a Spectramax 384 plate reader and the data were imported into a customized Excel spreadsheet for the determination of the 50% effective inhibitory concentration (EC50).
Antibiotics were added to the P1A bacteria (Simultaneous). All concentrations and combinations were evaluated in triplicate in a 96-well plate format. Following overnight incubation, the OD625 of the plates was measured in a Spectramax 384 plate reader and the data were imported into a customized Excel spreadsheet for the determination of the 50% effective inhibitory concentration at (EC50) by linear regression analysis.
A general note: In broth dilution the organism is exposed to a series of concentrations in liquid medium.

Data set [2] has as its system Escherichia coli ATCC 25922. Nature of the data set: microbe, parasite or virus in culture. Format: cell-based. The note with it: for inhibition by sulbactam: amp/sulbactam data. The protocol: as §1
Next, the 90% effective inhibitory concentration (EC90) of ampicillin, ceftriaxone, ceftazidime, meropenem, cefepime, cefazolin, amp/sulbactam, cefoperazone, cefotaxime, and cefuroxime against Escherichia coli was determined in the absence and presence of P1A, P3A, or P4A β-lactamase. For the purposes of these studies, the stated effective concentration was the initial concentration of ampicillin, ceftriaxone, ceftazidime, meropenem, cefepime, cefazolin, amp/sulbactam, cefoperazone, cefotaxime, and cefuroxime added at the beginning of the experiment, and not a concentration measured during the course of the experiment or at the end of the incubation period.
Specifically, the assay was performed by diluting (2-fold steps) the chosen antibiotic across the rows of a 96 well dish. The MIC was determined as the point at which the diluted antibiotic transitions from killing to not killing the bacteria (in this case, an E. coli strain that is sensitive to all antibiotics). P1A, P3A, and P4A were diluted (10 fold steps) down the columns (the β-lactamase concentrations increased down the columns). […] The latter point was used as the cut-off point. […] However, for this assay, the absolute MIC is not the most important parameter. The most relevant readout was the β-lactamase concentration at which the apparent MIC increases to the maximum amount of antibiotic tested.
E coli 29522 was incubated overnight in the presence of serial dilutions of antibiotic and the indicated amounts of β-lactamase protein from cell culture supernatants in a 96 well plate. Bacterial density (OD625) of the cultures was measured and the concentration at which the density was reduced by 90% relative to an untreated bacterial control (EC90) was determined. The assay was performed on two separate days and the data reported as Rep1 and Rep2. NA=not assayed.
E coli 29522 was incubated overnight in the presence of serial dilutions of antibiotic and the indicated amounts of β-lactamase protein from cell culture supernatants in a 96 well plate. Bacterial density (OD625) of the cultures was measured and the concentration at which the density was reduced by 90% relative to an untreated bacterial control (EC90) was determined.

Data set [3] deals with Escherichia coli ATCC 25922. Briefly: microbe, parasite or virus in culture. In kind it is cell-based. The note with it: for EC50 / EC90: Escherichia coli, ATCC25922, no enzyme; for EC90: Table 17, read-out: Ceftriaxone EC90.
In data set [4] the test system is Escherichia coli ATCC 25922. Briefly: Microbroth dilution: EC50 of ampicillin and ceftriaxone in absence and presence of P1A. Format: cell-based. The note with it: absence of P1A; ceftriaxone 0.13 to 128 μg/mL.
Data set [5] is described as follows: Kinetic parameters of P1A mutant strains. In kind it is biochemical. The protocol:
(§2) β-lactamase activity of the mutants was further characterised from E. coli cell lysates and B. subtilis growth supernatant with ampicillin, cefotaxime, ceftriaxone, cefuroxime, ceftazidime, meropenem and imipenem. The activities were determined using only one substrate concentration of each antibiotic tested. Selection of the antibiotic concentration was done with the antibiotic concentration as high as was practical, [S]>>Km. Based on these preliminary experiments, more accurate kinetic parameters were determined for a couple of mutants from both the site-directed and the random mutagenesis research lines. All the mutant enzymes selected for more detailed study were expressed in the B. subtilis host strain RS303. The cells carrying the mutated proteins were grown in minimal medium over-night after which the cells were harvested and the supernatant was concentrated in 1:10 with Amicon Ultra-4 centrifugal devices, MWCO 10000 (Amicon). Protein concentration in each culture supernatant was estimated from 12% SDS-PAGE (Criterion XT Bis-Tris, BioRad, Calif., USA) using the P1A reference material A18K31 as a standard. Kinetic parameters were measured for cefotaxime, ceftriaxone and cefuroxime for each selected mutant strain. The site-directed mutants were designed to hydrolyze cefotaxime and random mutants were screened with ceftriaxone, which made these antibiotics natural choices for determining kinetic parameters.

For data set [6] the following is noted: cited from earlier work.
Data set [7] in a line: Preliminary enzymatic activity of P1A mutants from B. subtilis supernatants. Format: biochemical. The following applies: B. subtilis supernatant, one substrate concentration. On the procedure: as §2
The next data set relates to E. coli (ATCC 25922). Briefly: Microtiter plate antibiotic degradation activity assay. Format: cell-based. On the procedure:
P1A and P4A were screened for degradation of ampicillin, ceftriazone, cefotaxime, cefozolin, cefuroxime, cefoperazone, cefepime, and ceftazidime in a microtiter plate activity assay that was designed to mimic the activity of the beta-lactamases in the gut in the presence of high antibiotic concentrations. The assay was performed by mixing 10, 100 or 1000 μg/ml of the indicated antibiotics with P1A or P4A, at concentrations of 10 or 100 ng/ml. Plates were either incubated for one hour at 37° C. after which E. coli (ATCC 25922) was added, or E. coli was added immediately after the addition of the beta-lactamase enzymes. The plates were incubated overnight and the bacterial growth quantified by measuring the absorbance at 625 nm (OD625) in a Spectramax 384 Plus plate reader. The analysis was performed twice for each beta-lactamase and antibiotic. The beta-lactamase activity of the culture supernatants was determined as positive or negative based on the appearance of bacterial growth in the individual wells. An OD625 of 1.0 or greater indicated maximal bacterial growth, therefore complete antibiotic degradation and high beta-lactamase activity.

The mark [8] stands for this setting: concentrated B. subtilis supernatant.
The mark [9] stands for this setting: relative values of P1A activities.

Values after ≈ are worked out from the molar mass of the structure shown. Read-outs that look alike come from different tables or passages of the source.

For `CO/N=C(\C(=O)N[C@@H]1C(=O)N2C(C(=O)O)=C(CSc3nc(=O)c(=O)[nH]n3C)CS[C@H]12)c1csc(N)n1` [Ceftriaxone], the EC50 in data set [1] (pre-incubation, Table 12) was under 0.13 µg/mL; in data set [1] (pre-incubation, Table 13) it was 0.03 µg/mL; in data set [1] (simultaneous, Table 12) it was under 0.13 µg/mL; in data set [1] (simultaneous, Table 13), 0.02 µg/mL; in data set [1] (simultaneous, Table 14 repeat analysis) it was 0.03 µg/mL; in data set [3] (1st value, high test 1 μg/mL, Table 16, read-out: Ceftriazone EC50), 0.06 µg/mL (≈ 0.108 µM). In addition, the EC50 in data set [3] (2nd value, high test 1 μg/mL, Table 16, read-out: Ceftriazone EC50) stood at 0.06 µg/mL (≈ 0.108 µM); in data set [3] (Rep 2, Table 15, read-out: Ceftriaxone EC50), 0.02 µg/mL (≈ 0.0361 µM). Also, the “Ceftriaxone EC90” value in data set [2] (no enzyme, 2nd value, high test 1 μg/mL, Table 17) stood at 0.06 µg/mL. Besides, the EC90 in data set [3] (1st value, high test 1 μg/mL) stood at 0.03 µg/mL (≈ 0.0541 µM); in data set [3] (2nd value, high test 1 μg/mL) it was 0.03 µg/mL (≈ 0.0541 µM). The “Ceftriaxone EC50” value in data set [3] (no enzyme, Rep 1, Table 15) came out at 0.008 µg/mL. Also, the “ceftriaxone EC99” value in data set [4] is under 0.13 µg/mL.

Regarding “P1A: Wild type; recombinant Bacillus licheniformis 749/C small exo beta-lactamase (PenP), SEQ ID NO: 1”, in data set [1] (microbiological assay), the “more active against ampicillin than ceftriaxone” value is 1,000 fold. In addition, the inhibition by sulbactam result in data set [2] is recorded as “effectively inhibited”. Besides, in data set [5] (setting [8]), the “Cefotaxime Vmax” value amounted to 1.18 nmol/s, the Cefotaxime kcat was determined as 16 s⁻¹, the “Ceftriaxone Vmax” value is reported as 2.81 nmol/s and the Ceftriaxone kcat is 25 s⁻¹. In addition, in data set [5] (setting [8]), the “Cefuroxime Vmax” value is 1.25 nmol/s and the Cefuroxime kcat turned out to be 23 s⁻¹. For the same molecule, in data set [5] (setting [9]), the “Cefotaxime Vmax” value amounted to 1.00, the Cefotaxime kcat was found to be 1 s⁻¹, the “Ceftriaxone Vmax” value is recorded as 1.00 and the Ceftriaxone kcat is 1 s⁻¹. Besides, in data set [5] (setting [9]), the “Cefuroxime Vmax” value is on record as 1.00 and the Cefuroxime kcat is 1 s⁻¹. In addition, the “efficacy in humans with piperacillin/tazobactam” value in data set [6] is “efficacious”. For the same molecule, in data set [7], the “AMP = ampicillin enzymatic activity” value is recorded as 1.00 multiples of P1A, the “CAZ = ceftazidime enzymatic activity” value is on record as 1.00 multiples of P1A, the “CRO = ceftriaxone enzymatic activity” value was 1.00 multiples of P1A and the “CTX = cefotaxime enzymatic activity” value is 1.00 multiples of P1A. Besides, the “CXM = cefuroxime enzymatic activity” value in data set [7] is recorded as 1.00 multiples of P1A. Moreover, the “activity for ceftriaxone, cefotaxime, and ceftazidime” value in the data set on E. coli (ATCC 25922) (enzyme 10 or 100 ng/ml, antibiotic 10, 100 or 1000 μg/ml, FIG. 8) is “no activity”.

B1: IS288: P1A with A232G A237S A238G S240D D276N; SEQ ID NO: 5 (protein)
chain: EMKDDFAKLEEQFDAKLGIFALDTGTNRTVAYRPDERFAFASTIKALTVGVLLQQKSIEDLNQRITTRDDLVNYNPITEKHVDTGMTLKELADASLRYSDNAAQNLILKQIGGPESLKKELRKIGDEVTNPERFEPELNEVNPGETQDTSTARALVTSLRAFALEDKLPSEKRELLIDWMKRNTTGDALIRAGVPDGWEVGDKTGSGDYGTRNDIAIIWPPKGDPVVLAVLSSRDKKDAKYDNKLIAEATKVVMKALNMNGK
For B1, in data set [2], the inhibition by sulbactam entry was “effectively inhibited”. Further, the “activity relative to P1A, all antibiotics except ampicillin” value in the data set with E. coli (ATCC 25922) (enzyme 10 or 100 ng/ml, FIG. 8) is given as “imporved activity relative to P1A”. Besides, in the data set on E. coli (ATCC 25922) (modification of five amino acids in P1A), the “cephalosporinase activity boosted relative to P1A” value is 10-1000 fold. In data set [3] (data showed activity at 500 ng/ml), the “improvement of activity for ceftazidime” value is 10 fold. Moreover, the “β-lactamase activity in comparison to P1A” value in data set [3] (for ceftriaxone, cefotaxime, ceftazidime, cefazolin, cefoperazone and cefuroxime) is reported as at least 10 fold.
